From publication PMC4159317
Marks after values point to notes of the source that are not given here.

How the values were obtained:
Glu104 = assay: NMR; conditions: 25 °C, not stated for the titration samples, folded, more structured form (MSF), signals were lost above pH 6.4 because the population of the structured form is low there
Glu105 = assay: NMR; conditions: 25 °C, not stated for the titration samples, folded, more structured form (MSF), signals were lost above pH 6.4 because the population of the structured form is low there
Glu107 [1] = assay: NMR; conditions: 25 °C, not stated for the titration samples, folded, more structured form (MSF), signals were lost above pH 6.4 because the population of the structured form is low there
Glu28 = assay: NMR; conditions: 25 °C, not stated for the titration samples, folded, more structured form (MSF), signals were lost above pH 6.4 because the population of the structured form is low there
Glu38 = assay: NMR; conditions: 25 °C, not stated for the titration samples, folded, more structured form (MSF), signals were lost above pH 6.4 because the population of the structured form is low there
Glu63 = assay: NMR; conditions: 25 °C, not stated for the titration samples, folded, more structured form (MSF), signals were lost above pH 6.4 because the population of the structured form is low there
Glu68 = assay: NMR; conditions: 25 °C, not stated for the titration samples, folded, more structured form (MSF), signals were lost above pH 6.4 because the population of the structured form is low there
Glu83 = assay: NMR; conditions: 25 °C, not stated for the titration samples, folded, more structured form (MSF), signals were lost above pH 6.4 because the population of the structured form is low there
Glu87 = assay: NMR; conditions: 25 °C, not stated for the titration samples, folded, more structured form (MSF), signals were lost above pH 6.4 because the population of the structured form is low there
Glu107 [2] = assay: other (circular dichroism); conditions: 25 °C; 50 mM NaCl; none stated; 30 µM protein in 50 mM NaCl titrated with 0.05-0.1 M HCl or NaOH; transition between the more structured form (MSF) and the less structured form (LSF) of the double mutant

Substance | pKa (Glu104) | pKa (Glu105) | pKa (Glu107 [1]) | pKa (Glu28) | pKa (Glu38) | pKa (Glu63) | pKa (Glu68) | pKa (Glu83) | pKa (Glu87) | pKa (Glu107 [2])
DraK histidine kinase, extracellular sensor domain (ESD), wild type (Streptomyces coelicolor A3(2)) | 4.6 | 5.5 | above 6.4 | 3.9 | 4.3 | 4.5 | 4.5 | 5.3 | 3.7 | 
DraK histidine kinase, extracellular sensor domain (ESD), E83L/E105L double mutant (Streptomyces coelicolor A3(2); E83L;E105L) |  |  |  |  |  |  |  |  |  | 8.1*
